Assay results as given in article PMC11323494, “A network of acetyl phosphate-dependent modification modulates c-di-AMP homeostasis in Actinobacteria” (mBio, 2024).
Blank lines part the entries; values can stand above or below the compound they belong to.

Tests used:
[1] = molecular target: DNA integrity scanning protein (DisA), nonacetylated (Saccharopolyspora erythraea) (UniProt A4F6V9); experiment: cross-linking; purified protein in 20 mM bicine pH 8.0, 150 mM NaCl, 10 mM MgCl2, 0.2% n-octyl-beta-D-glucopyranoside, 8% glycerol; 1 mM disuccinimidyl suberate, room temperature, 1 h; 15% SDS-PAGE, Coomassie blue; bands quantified by densitometry; self-association (DisA monomer and octamer, DasR monomer and dimer)
DisA [2] = molecular target: T1, DisA (Saccharopolyspora erythraea, UniProt A4F6V9); experiment: HPLC of c-di-AMP formed (DAC assay); assay type: biochemical; settings: 100 mM ATP, 10 mM MgCl2, 0.1 M NaCl, 40 mM Tris pH 7.5, 10 uM enzyme
T1 construct: recombinant His-tagged, pET28a(+), E. coli BL21(DE3); octamer
T1 sequence (A4F6V9 1-370): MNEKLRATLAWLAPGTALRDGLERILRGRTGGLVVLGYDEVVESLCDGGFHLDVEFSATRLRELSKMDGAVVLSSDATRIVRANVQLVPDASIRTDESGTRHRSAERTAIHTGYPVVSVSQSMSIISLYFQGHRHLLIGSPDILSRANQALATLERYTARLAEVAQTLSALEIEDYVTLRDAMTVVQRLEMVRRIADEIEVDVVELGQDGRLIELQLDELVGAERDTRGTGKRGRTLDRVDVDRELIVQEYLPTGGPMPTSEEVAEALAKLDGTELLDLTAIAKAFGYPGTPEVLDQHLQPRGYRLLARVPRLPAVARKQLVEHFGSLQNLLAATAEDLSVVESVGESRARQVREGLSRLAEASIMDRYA

DasR^K78R = experiment: cross-linking, gel band densitometry (ImageJ); settings: parent: 100
[3] = test system: DasR WT (Saccharopolyspora erythraea NRRL2338); experiment: BLI; settings: BLI: 10 mM HEPES pH 8.0, 2 mM MgCl2, 0.1 mM EDTA, 200 mM KCl (running buffer + 10 µg/mL BSA, 0.02% Tween-20), SA sensor, temperature not stated; EMSA: 5 nM …
[4] = molecular target: DasR, nonacetylated (GntR-family global regulator) (Saccharopolyspora erythraea); experiment: cross-linking; purified protein in 20 mM bicine pH 8.0, 150 mM NaCl, 10 mM MgCl2, 0.2% n-octyl-beta-D-glucopyranoside, 8% glycerol; 1 mM disuccinimidyl suberate, room temperature, 1 h; 15% SDS-PAGE, Coomassie blue; bands quantified by densitometry; self-association (DisA monomer and octamer, DasR monomer and dimer)
DasR K78Q variant = experiment: cross-linking, gel band densitometry (ImageJ); settings: parent: 100
DisA [5] = molecular target: T1, DisA; experiment: DAC activity by HPLC after […] h preincubation; acetylation by anti-AcK blot and LC-MS/MS; assay type: biochemical; settings: covalent; lysine acetylation (K66, K284); 10 mM AcP, 5 h, 37 C, 50 mM HEPES pH 7.5; substrate ATP
DasR = molecular target: T2, DasR (Saccharopolyspora erythraea, UniProt A4F723); experiment: in vitro acetylation, anti-AcK Western blot; assay type: binding; settings: covalent; lysine acetylation; 10 mM AcP, 0-5 h, 37 C, 50 mM HEPES pH 7.5
T2 construct: gene SACE_0500; recombinant His-tagged, pET28a(+), E. coli BL21(DE3); dimer
T2 sequence (A4F723 1-251): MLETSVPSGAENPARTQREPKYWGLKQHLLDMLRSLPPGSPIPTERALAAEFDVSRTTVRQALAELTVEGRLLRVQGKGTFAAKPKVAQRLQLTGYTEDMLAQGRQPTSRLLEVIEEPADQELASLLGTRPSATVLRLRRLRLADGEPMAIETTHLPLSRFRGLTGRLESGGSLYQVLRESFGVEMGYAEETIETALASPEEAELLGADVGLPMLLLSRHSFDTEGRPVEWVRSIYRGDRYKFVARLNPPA

Compound: DNA integrity scanning protein (DisA), nonacetylated (from UniProt A4F6V9 1-370) (enzyme)
- stoichiometry N [1]: 8

Compound: Nc1ncnc2c1ncn2[C@@H]1O[C@H](COP(=O)(O)OP(=O)(O)OP(=O)(O)O)[C@@H](O)[C@H]1O [ATP]
- HPLC of c-di-AMP formed (DAC assay) (DisA [2]): started by the addition of 100-mM ATP

Compound: disA promoter probe
- Kd [3]: 400 nM

Compound: DasR, nonacetylated (GntR-family global regulator) (natural protein)
- stoichiometry N [4]: 2

Compound: DasR, nonacetylated (GntR-family global regulator) K78Q
- other: relative monomer level (relative monomer level (WT = 100)) (DasR K78Q variant): 230
- percent of parent (relative dimer level (WT = 100)) (DasR K78Q variant): 42

More lines, main results first:

- other: relative monomer level (relative monomer level (WT = 100)) (DasR^K78R): 140
- percent of parent (relative dimer level (WT = 100)) (DasR^K78R): 89
Compound: DasR, nonacetylated (GntR-family global regulator) K78R

- DAC activity reduction (%) (DisA [5]): ~ 75%
Compound: CC(=O)OP(=O)(O)O [acetyl phosphate]
- in vitro acetylation, anti-AcK Western blot (DasR): In vitro acetylation further confirmed that DasR was acetylated by AcP
